From US7265263B1, “Potato transcription factors, methods of use thereof, and a method for enhancing tuber development” (Iowa State University Research Foundation, Inc., priority 2002, dated 2007)

Assays:
CaMV 35S promoter = assay: Transcription assay, GUS reporter driven by CaMV 35S promoter in tobacco protoplasts; type: cell-based, cauliflower mosaic virus
Experimental: FIGS. 24A-C show schematics of constructs (FIG. 24A) and the repression effect of StBEL-05 and POTH1 on the ga20ox1 promoter (FIG. 24B) and on the 35S CaMV promoter (FIG. 24C). The construct with the LUC gene under the control of the cauliflower mosaic virus (CaMV) 35S promoter was used as an internal control. Each transfection was performed three times. Relative GUS-LUC activity was calculated with reporter alone set as 100%. Data are means±SE.
For each transfection analysis, 700 μL of tobacco protoplasts (prepared as described above) were mixed with 30 μL 2 M KCl and plasmid DNA in an electroporation cuvette with 0.4-cm electrode gap. […]
Luciferase assays were performed by injecting 100-μL luciferase substrate (Promega, Madison, Wis.) into 20 μL of extract and measuring the emitted photons for 15 seconds in a TD-20 luminometer (Turner Designs, Sunnyvale, Calif.). […] A fluorescence multiwell plate reader, Fluoroskan II (MTX labs, Vienna, Va.), was used to measure GUS activity at 365 nm (excitation) and 455 nm (emission). Each sample was measured three times for both LUC and GUS activity. Relative GUS-LUC activity was calculated by dividing the ratio of GUS activity to LUC activity from different effectors with the ratio from reporter plasmid alone. Relative activities calculated from three transfection replications were presented as a mean±SE.

[1] = system: potato ga20ox1 promoter (P1, P2, P3) and first intron; assay: Gel retardation assay with ga20ox1 promoter regions and first intron; type: binding
Text: The first intron with partial flanking exon sequence (450 bp) of potato ga20ox1 and its promoter (981 bp, provided by Dr. Salomé Prat, CSIC Cantoblanco Campus, Univ. of Madrid, Spain) were used for gel mobility shift assays. Polymerase chain reaction (PCR) was used to amplify three regions of the promoter: -981 to 636 (P1), -660 to 307 (P2), and -331 to 0 (P3). About a 25-bp overlap was maintained between P1 and P2 or P2 and P3 in the chance that the protein-binding site would span the overlapped region. The first intron of this gene was amplified from potato genomic DNA by using PCR and the oligos 5′-[…]-3′ (SEQ ID NO:21) and 5′-[…]-3′ (SEQ ID NO:22) as primers. These primers were designed based on the site of the first intron of the tobacco GA20 oxidase gene Ntc12. The four fragments were purified on a 1.4% agarose gel and labeled with α^32P-dATP using Klenow fragment. […]
In the competition assays, unlabeled double-stranded DNA fragments (10×, 25×, 50×, 100×) were incubated with the recombinant protein before the addition of the radioactive probe. The dissociation rates were determined by adding 500-fold more cold DNA fragments to the DNA-binding reactions that were being incubated on ice, and loaded onto the running gel every 10 minutes. […]

POTH1 = assay: In vitro binding assay (immunoprecipitation) with POTH1; design: species or system Solanum tuberosum; settings: in vitro transcription/translation, anti-GAD
POTH1, sequence (as listed by the source): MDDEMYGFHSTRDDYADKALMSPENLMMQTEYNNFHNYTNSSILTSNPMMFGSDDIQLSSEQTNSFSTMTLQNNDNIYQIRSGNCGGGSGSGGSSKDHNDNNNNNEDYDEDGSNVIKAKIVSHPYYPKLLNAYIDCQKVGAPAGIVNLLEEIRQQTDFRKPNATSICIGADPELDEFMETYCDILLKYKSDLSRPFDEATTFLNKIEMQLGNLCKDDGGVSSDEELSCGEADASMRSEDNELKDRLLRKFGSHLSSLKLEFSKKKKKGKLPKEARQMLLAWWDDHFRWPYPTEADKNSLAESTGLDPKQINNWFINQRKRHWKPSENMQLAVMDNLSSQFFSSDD
Experimental: In vitro binding experiments were performed as described by Ni et al., “PIF3, a Phytochrome-Interacting Factor Necessary for Normal Photoinduced Signal Transduction, is a Novel Basic Helix-Loop-Helix Protein,” Cell 95:657-667 (1998), which is hereby incorporated by reference in its entirety. The full-length sequence for POTH1 was cloned into a pET17b/GAD fusion cassette and transcribed under the control of the T7 promoter. […] Each 50 μl TnT reaction contained 2.0 μg of template plasmid DNA and 20 μmol (20 μCi) of labeled ^35S-methionine. The POTH1:GAD/BEL complex was immunoprecipitated with anti-GAD antibodies (Santa Cruz Biotechnology, Calif.). The proteins from the pellet (one-half the fraction) and for the prey (one-fourth of the reaction volume) were resolved on a 10% SDS-PAGE gel and visualized by autoradiography.

B1: StBEL-05 protein from pGEM11Z (in vitro transcription/translation) (other)
chain: MYYQGTSDNTNIQADHQQRHNHGNSNNNNIQTLYLMNPNNYMQGYTTSDTQQQQQLLFLNSSPAASNALCHANIQHAPLQQQHFVGVPLPAVSLHDQINHHGLLQRMWNNQDQSQQVIVPSSTGVSATSCGGITTDLASQLAFQRPIPTPQHRQQQQQQGGLSLSLSPQLQQQISFNNNISSSSPRTNNVTIRGTLDGSSSNMVLGSKYLKAAQELLDEVVNIVGKSIKGDDQKKDNSMNKESMPLASDVNTNSSGGGESSSRQKNEVAVELTTAQRQELQMKKAKLLAMLEEVEQRYRQYHHQMQIIVLSFEQVAGIGSAKSYTQLALHAISKQFRCLKDAIAEQVKATSKSLGEEEGLGGKIEGSRLKFVDHHLRQQRALQQIGMMQPNAWRPQRGLPERAVSVLRAWLFEHFLHPYPKDSDKIMLAKQTGLTRSQVSNWFINARVRLWKPMVEEMYLEEVKNQEQNSTNTSGDNKNKETNISAPNEEKHPIITSSLLQDGITTTQAEISTSTISTSPTAGASLHHAHNFSFLGSFNMDNTTTTVDHIENNAKKQRNDMHKFSPSSILSSVDMEAKARESSNKGFTNPLMAAYAMGDFGRFDPHDQQMTANFHGNNGVSLTLGLPPSENLAMPVSQQNYLSNDLGSRSEMGSHYNRMGYENIDFQSGNKRFPTQLLPDFVTGNLGT
notes: 35S-methionine labelled prey; also called p11Z-5
- effect on the activity of the CaMV 35S promoter (CaMV 35S promoter): Neither StBEL-05 nor POTH1 showed any effect
- binding to ga20ox1 regulatory regions (mobility shift) [1]: retarded the mobility of all three promoter sequences and the first intron
- pull-down by POTH1 in immunoprecipitation (POTH1): pulled down
